Test results published in the supplement of paper PMC10126150.
± gives the standard deviation of the averaged measurements.

test system: ATP; assay: switch fluorescence ratio, 500 uM ATP over buffer (Cy3 cluster intensity, sum of 5 cycles each) (fold (ratio)); higher = stronger signal-on switching upon ATP binding; sequences stand for … in TCGTCGGCAGCGTCAGATGTGTATAAGAGACAGTTTTTTTTTTTTTTTTTTTTTTTTT…TC; settings: aptamer strand: ATP DNA aptamer (quencher-CACCTGGGGGAGTATTGCGGAGGAAGG + anchor), 100 nM annealed; ATP concentration: 500 uM
How it was run: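 Between each of five buffer/ATP cycles, the flow-cell was stripped with NaOH and re-annealed. Each cycle imaged Cy3-labelled switching-strand clusters, annealed to 100 nM quencher-labelled ATP aptamer on a modified Illumina MiSeq flow-cell, first in selection buffer and then after 15 min with 500 uM ATP at 22 °C. The fluorescence ratio is summed target-cycle over summed buffer-cycle Cy3 intensity per cluster, averaged per switch-domain sequence, with clusters outside 100-1000 RFU excluded.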
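Further: ATP exposure 15 min at 22 °C before imaging.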

Sequence | switch fluorescence ratio
GTTTGGGCCG | 1.07 ± 0.028
GTTTGGGTTG | 0.989 ± 0.019
GTTTGGTAGT | 0.979 ± 0.038
GTTTGTTAAT | 1.007 ± 0.0044
GTTTGTTTAA | 0.981 ± 0.017
GTTTTAAACA | 1 ± 0.034
GTTTTAAAGG | 0.984 ± 0.031
GTTTTAACAT | 0.9895 ± 0.0073
GTTTTAAGGG | 0.99 ± 0.016
GTTTTACGCG | 1 ± 0.007
GTTTTAGAGG | 1.01 ± 0.015
GTTTTAGCCA | 0.97 ± 0.013
GTTTTAGGCT | 0.973 ± 0.061
GTTTTAGTGT | 0.98716 ± 0.00058
GTTTTAGTTT | 0.987 ± 0.037
GTTTTATAGG | 0.965 ± 0.021
GTTTTATGAG | 0.959 ± 0.014
GTTTTATGGA | 0.983 ± 0.034
GTTTTATTTT | 1 ± 0.047
GTTTTCAAAG | 0.973 ± 0.037
GTTTTCCCGT | 1.03 ± 0.027
GTTTTCGCGA | 1.06 ± 0.04
GTTTTCGGGA | 1.03 ± 0.013
GTTTTCGGGT | 1.01 ± 0.052
GTTTTCTCAT | 0.989 ± 0.029

Sequence | switch fluorescence ratio
GTTTTCTGAG | 0.9658 ± 0.0089
GTTTTGACAT | 0.993 ± 0.0013
GTTTTGATGG | 1 ± 0.019
GTTTTGATTG | 1 ± 0.04
GTTTTGGAGT | 1.05 ± 0.047
GTTTTGGGCT | 1.01 ± 0.032
GTTTTGGTAC | 1.01 ± 0.038
GTTTTGTCAA | 1.02 ± 0.0038
GTTTTGTCAT | 1.01 ± 0.035
GTTTTGTGTA | 1.01 ± 0.074
GTTTTGTTAT | 1.01 ± 0.018
GTTTTTAGAA | 0.994 ± 0.031
GTTTTTATAT | 1.03 ± 0.015
GTTTTTATTT | 0.976 ± 0.031
GTTTTTCGAT | 1.02 ± 0.001
GTTTTTCTTA | 0.978 ± 0.037
GTTTTTCTTT | 0.988 ± 0.024
GTTTTTGCTA | 1.01 ± 0.028
GTTTTTGGTA | 0.986 ± 0.021
GTTTTTGTAA | 1.02 ± 0.052
GTTTTTGTCA | 1.021 ± 0.008
GTTTTTGTCG | 1.07 ± 0.056
GTTTTTTAGG | 0.978 ± 0.0056
GTTTTTTATT | 0.996 ± 0.033
GTTTTTTCAT | 1.02 ± 0.023

Sequence | switch fluorescence ratio
GTTTTTTGTG | 0.986 ± 0.013
TAAAAAAGG | 0.997 ± 0.042
TAAAAAAGTT | 1.12 ± 0.26
TAAAAAATAG | 1.043 ± 0.0086
TAAAAACCTT | 1.43 ± 0.35
TAAAAAGA | 0.9496 ± 0.005
TAAAAAGATG | 1.02 ± 0.044
TAAAAAGGGA | 1.02 ± 0.02
TAAAAAGGGG | 0.998 ± 0.012
TAAAAAGTAT | 1 ± 0.015
TAAAAATATT | 0.961 ± 0.03
TAAAAATCGT | 0.997 ± 0.021
TAAAAATTAT | 1 ± 0.028
TAAAAGATTT | 1.01 ± 0.037
TAAAAGCTGA | 0.989 ± 0.042
TAAAAGGACT | 1.03 ± 0.034
TAAAAGGGGT | 1.01 ± 0.05
TAAAATACA | 0.983 ± 0.019
TAAAATAGTC | 1.02 ± 0.034
TAAAATATGG | 1.06 ± 0.11
TAAAATGGGG | 1 ± 0.022
TAAAATTTAA | 1.01 ± 0.05
TAAAATTTTT | 1.002 ± 0.01
TAAACACGTG | 0.987 ± 0.053
TAAACAGTGA | 1.01 ± 0.038

Sequence | switch fluorescence ratio
TAAACCGTGG | 1.02 ± 0.024
TAAACCTAGC | 1.46 ± 0.062
TAAACGCGGG | 1.04 ± 0.093
TAAACGCGTA | 0.998 ± 0.029
TAAACGTATT | 1.14 ± 0.13
TAAACTAAAA | 0.97499 ± 3.2e-05
TAAACTCCA | 1.05 ± 0.042
TAAAGAGGGT | 1 ± 0.033
TAAAGATTTC | 1.01 ± 0.069
TAAAGATTTT | 1.01 ± 0.041
TAAAGCAGGA | 0.993 ± 0.03
TAAAGCATGG | 0.98 ± 0.019
TAAAGCTAGG | 0.995 ± 0.065
TAAAGGATAT | 1.01 ± 0.014
TAAAGGCTAC | 1.17 ± 0.2
TAAAGGGAGC | 1.12 ± 0.19
TAAAGGGATC | 0.978 ± 0.017
TAAAGGGGCG | 1.01 ± 0.031
TAAAGGGGGC | 1.05 ± 0.017
TAAAGGGGTG | 1.01 ± 0.038
TAAAGGGTTA | 0.985 ± 0.014
TAAAGGGTTT | 0.982 ± 0.021
TAAAGGTCAT | 0.9959 ± 0.0018
TAAAGGTTTT | 0.974 ± 0.04
TAAAGTGATT | 0.988 ± 0.025

Sequence | switch fluorescence ratio
TAAAGTGGCG | 1.05 ± 0.039
TAAAGTTAGG | 1 ± 0.011
TAAATAATAT | 1.01 ± 0.019
TAAATACTCT | 1.16 ± 0.032
TAAATCAGTA | 0.9888 ± 0.0048
TAAATCCGGG | 1 ± 0.022
TAAATCGTGC | 1.022 ± 0.0064
TAAATGAATT | 1.05 ± 0.096
TAAATGCCGG | 1.14 ± 0.26
TAAATGCGGG | 0.975 ± 0.039
TAAATGGAAA | 0.999 ± 0.051
TAAATGGAGG | 0.9891 ± 0.0061
TAAATGGGGG | 0.979 ± 0.034
TAAATGGTGG | 0.977 ± 0.015
TAAATGGTTT | 1.02 ± 0.023
TAAATGTGCG | 0.996 ± 0.031
TAAATGTTAC | 1.0644 ± 0.0005
TAAATTCAGA | 0.994 ± 0.031
TAAATTGCGG | 0.966 ± 0.013
TAAATTGGGG | 0.983 ± 0.024
TAAATTTAAT | 0.982 ± 0.034
TAACAATTCC | 1.26 ± 0.013
TAACACATTT | 0.98 ± 0.059
TAACGAAGGA | 1.03 ± 0.051
TAACGCCATC | 1.51 ± 0.035

Sequence | switch fluorescence ratio
TAACGCTGTT | 1.01 ± 0.0068
TAACGGAAAA | 1 ± 0.053
TAACGGAGAC | 1.35 ± 0.32
TAACGGAGGT | 1.02 ± 0.014
TAACGGCATT | 1.08 ± 0.037
TAACGGGGGA | 1.01 ± 0.062
TAACGTAACA | 1.26 ± 0.068
TAACGTATGG | 1.03 ± 0.021
TAACTAAAGG | 0.9971 ± 0.0099
TAACTACGAG | 1.07 ± 0.011
TAACTAGGGG | 1.49 ± 0.042
TAACTATAAG | 1 ± 0.018
TAACTATTCC | 1.23 ± 0.082
TAACTGGCGT | 0.991 ± 0.04
TAACTGTAGG | 1.02 ± 0.033
TAACTGTTCC | 1.12 ± 0.11
TAAGAAAAAA | 1.017 ± 0.0075
TAAGAAAACT | 1.36 ± 0.22
TAAGAACGAT | 0.987 ± 0.053
TAAGAAGGCG | 0.9734 ± 0.0047
TAAGAAGTTT | 0.996 ± 0.028
TAAGACGCAA | 1.62 ± 0.12
TAAGACGTCC | 1.016 ± 0.0088
TAAGAGACGA | 0.98 ± 0.024
TAAGAGACGC | 1.014 ± 0.0061

Sequence | switch fluorescence ratio
TAAGAGACGG | 0.991 ± 0.056
TAAGAGATGT | 0.978 ± 0.034
TAAGAGGGGC | 1 ± 0.037
TAAGATAAAT | 1 ± 0.021
TAAGATGGG | 1.01 ± 0.019
TAAGATGTCA | 1.02 ± 0.034
TAAGATTTTT | 1.01 ± 0.032
TAAGCAAAAG | 1.19 ± 0.1
TAAGCATGGA | 1.04 ± 0.013
TAAGCCATTA | 1.01 ± 0.0038
TAAGCCGAGG | 0.987 ± 0.016
TAAGCGAGTG | 0.9832 ± 0.0032
TAAGCGATCT | 1.0192 ± 0.00013
TAAGCGGGCT | 0.973 ± 0.024
TAAGCGTTGT | 0.98 ± 0.054
TAAGCTCAAT | 0.979 ± 0.012
TAAGCTGGAG | 1.07 ± 0.14
TAAGCTGGGG | 0.9861 ± 0.0052
TAAGCTTGGC | 1.02 ± 0.026
TAAGCTTTTG | 1.025 ± 0.0084
TAAGGAAAAG | 1.01 ± 0.05
TAAGGACAGG | 1.047 ± 0.0049
TAAGGAGAAT | 0.9676 ± 0.0046
TAAGGCAAGG | 1.03 ± 0.021
TAAGGCAATT | 1.06 ± 0.041

Sequence | switch fluorescence ratio
TAAGGCGGTT | 0.984 ± 0.021
TAAGGCTGTT | 0.953 ± 0.023
TAAGGGAAAA | 0.977 ± 0.023
TAAGGGAGTT | 0.9874 ± 0.0095
TAAGGGATGG | 0.973 ± 0.043
TAAGGGATGT | 0.995 ± 0.049
TAAGGGGACG | 1.02 ± 0.023
TAAGGGGGAC | 1.01 ± 0.053
TAAGGGTACG | 1.03 ± 0.058
TAAGGGTGGC | 1.04 ± 0.035
TAAGGTATGA | 1.002 ± 0.0076
TAAGGTATTT | 1.01 ± 0.023
TAAGGTTATG | 0.973 ± 0.017
TAAGGTTTAT | 0.9979 ± 0.0072
TAAGTATAAT | 0.999 ± 0.017
TAAGTATGAC | 0.982 ± 0.032
TAAGTATTGG | 0.977 ± 0.037
TAAGTGCCAC | 1.01 ± 0.024
TAAGTGGAAG | 1.01 ± 0.029
TAAGTGGGGC | 0.957 ± 0.085
TAAGTGGTTG | 0.989 ± 0.052
TAAGTGTTGC | 1 ± 0.037
TAAGTTGTGC | 1.02 ± 0.15
TAATAAAAGG | 0.998 ± 0.041
TAATAAACAA | 1 ± 0.024
